Changes are numbered by the printed parent chain. Names may count otherwise.
B1: Her2/Hel bispecific antibody, Combination 1 in Table 3 / Table 9 / Table 10 (anti-Her2: Q39K, F126C, C220S / Q38D, Q124C, C214S; anti-Hel: Q39D / Q38K) (bispecific antibody, human IgG1, kappa, L234A L235A)
heavy 1: not shown
light 1: not shown
heavy 2: EVRLLESGGGLVQPGGSLRLSCAASGFTFSNYAMGWVRDAPGKGLEWVSAISGSGGSTYYADSVKGRFTTSRDDSKNALYLQMNSLRAEDTAVYYCARGGPGWYAADVWGQGTTVTVSSASTKGPSVFPLAPSSKSTSGGTAALGCLVKDYFPEPVTVSWNSGALTSGVHTFPAVLQSSGLYSLSSVVTVPSSSLGTQTYICNVNHKPSNTKVDKKVEPKSCDKTHTCPPCPAPEAAGGPSVFLFPPKPKDTLMISRTPEVTCVVVDVSHEDPEVKFNWYVDGVEVHNAKTKPREEQYNSTYRVVSVLTVLHQDWLNGKEYKCKVSNKALPAPIEKTISKAKGQPREPQVCTLPPSRDELTKNQVSLSCAVKGFYPSDIAVEWESNGQPENNYKTTPPVLDSDGSFFLVSKLTVDKSRWQQGNVFSCSVMHEALHNHYTQKSLSLSPGK
light 2: DIQMTQSPSSLSASVGDRVTITCRASQSISSYLNWYQKKPGKAPKLLIYAASSLQSGVPSRFSGSGSGTDFTLTISSLQPEDFATYYCQQADLPAFAFGGGTKVEIKRTVAAPSVFIFPPSDEQLKSGTASVVCLLNNFYPREAKVQWKVDNALQSGNSQESVTEQDSKDSTYSLSSTLTLSKADYEKHKVYACEVTHQGLSSPVTKSFNRGEC
B2: Her2/Hel bispecific antibody, Combination 3 in Table 3 / Table 9 / Table 10 (anti-Her2: L45K, F126C, C220S / P44D, Q124C, C214S; anti-Hel: L45D / P44K) (bispecific antibody, human IgG1, kappa, L234A L235A)
heavy 1: not shown
light 1: not shown
heavy 2: B1 heavy 2 with D39Q, L45D
light 2: B1 light 2 with K38Q, P44K
B3: Her2/Hel bispecific antibody, Combination 5 in Table 3 / Table 9 / Table 10 (anti-Her2: Y91K, F126C, C220S / P44D, Q124C, C214S; anti-Hel: Y91D / P44K) (bispecific antibody, human IgG1, kappa, L234A L235A)
heavy 1: not shown
light 1: not shown
heavy 2: B1 heavy 2 with D39Q, Y95D
light 2: B1 light 2 with K38Q, P44K
B4: Her2/Hel bispecific antibody, Combination 4 in Table 3 / Table 9 / Table 10 (anti-Her2: Y91K, F126C, C220S / A43D, Q124C, C214S; anti-Hel: Y91D / A43K) (bispecific antibody, human IgG1, kappa, L234A L235A)
heavy 1: not shown
light 1: not shown
heavy 2: B1 heavy 2 with D39Q, Y95D
light 2: B1 light 2 with K38Q, A43K
B5: Her2/Hel bispecific antibody, Combination 2 in Table 3 / Table 9 / Table 10 (anti-Her2: L45K, F126C, C220S / Y87D, Q124C, C214S; anti-Hel: L45D / Y87K) (bispecific antibody)
heavy 1: not shown
light 1: not shown
heavy 2: B1 heavy 2 with D39Q, L45D
light 2: B1 light 2 with K38Q, Y87K

Each binder was assayed against T1, Human Her2 (Human, UniProt P04626 23-652) (assay: BLI (ForteBio), antibody loaded on ProA sensors, antigen fusion protein in solution, 30 degrees).
T1 construct: also called antigen Her2
Procedure: Biolayer Interferometry (BLI) technology was used to test the equilibration dissociation constant (KD) of bispecific antibody binding to the respective antigens in the present disclosure. The BLI method affinity test was performed using an existing method (Estep, P et al., High throughput solution Based measurement of antibody-antigen affinity and epitope binning. MAbs, 2013.5 (2): Pages 270-8).
Half an hour before the start of the experiment, a suitable number of ProA (ForteBio, 18-5010) sensors based on the sample size were soaked in SD buffer (PBS 1×, BSA 0.1%, Tween-20 0.05%). 100 μL of SD buffer and antigen fusion protein were taken and added to a 96-well black polystyrene half-area microplate (Greiner, 675076), respectively. The sensor position was selected based on the sample position and layout. The instrument setting parameters are as follows: Run steps: Baseline, Loading ˜1 nm, Baseline, Association and Dissociation; the run time of each step depended on the sample binding and dissociation rate, and the rotational speed was 400 rpm and temperature was 30 degrees. ForteBio analysis software was used to analysis the KD value.

Binder	Kd [nM]	koff [s⁻¹]	kon [M⁻¹ s⁻¹]
B1	0.805	0.0002	249000
B2	0.758	0.0002	264000
B3	0.72	0.0002	278000
B4	0.764	0.0002	262000
B5	0.748	0.0002	268000

From patent US20260062490A1 (Innovent, published 2026)
